# Test results taken from patent US20020173049A1.
# Non-standard residues stand in square brackets, D forms with d. No end group written: not given here. Ahx = NCCCCCC(=O)O
# Target: E3α (rabbit)
# Assay: cell-based or functional assay
substance,measurement,value
Phe-[Ahx]-Cys,"TCA-soluble 125I (cpm) from [125I]-lysozyme degradation in rabbit reticulocyte lysate at the 2 hour time point; no treatment 12,475 cpm",3590 cpm
